Results published in publication PMC6609482.
Like-named read-outs stand apart in the source and are kept apart here.

Assays:
[1] = biological target: T1, HMCES SRAP domain (SRAPd) WT (Homo sapiens, UniProt Q96FZ2 2-270); experiment: fluorescence polarization
T1 sequence: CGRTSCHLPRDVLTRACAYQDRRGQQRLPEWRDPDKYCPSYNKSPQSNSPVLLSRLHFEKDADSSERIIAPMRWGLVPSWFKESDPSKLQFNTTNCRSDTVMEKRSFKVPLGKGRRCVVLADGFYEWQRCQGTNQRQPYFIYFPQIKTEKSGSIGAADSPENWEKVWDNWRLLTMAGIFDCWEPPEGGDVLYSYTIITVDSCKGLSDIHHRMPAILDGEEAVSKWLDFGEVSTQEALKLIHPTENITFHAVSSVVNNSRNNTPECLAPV

[2] = biological target: T1, HMCES SRAP domain (SRAPd) WT; experiment: crystal structure
[3] = biological target: T1, HMCES SRAP domain (SRAPd) WT; experiment: crystal structure; remark: listed apart in the source

B1: 3-nt gap DNA (dsDNA)
DNA 1: TCTTCTGGTCCGGATGGTAGTTAAGTGTTGAC
DNA 2: GGACCAGAAGA
DNA 3: GTCAACACTTAACTACCA
For B1, the binding signal [1] was ~7 fold higher affinity than dsDNA of same sequence.

B2: DNA_3nt (3' overhang) (dsDNA)
DNA 1: CCAGACGTT
DNA 2: GTCTTG
B2: binds [2].

B3: DNA_6nt (3' overhang) (dsDNA)
DNA 1: CCAGACGTTGTT
DNA 2: GTCTTG
B3: binds [3].
